# Laboratory results reported in patent publication US5985630A, “Assay for detecting inhibitors of aminoacyl-tRNA synthetases” (Zeneca Limited, priority 1993, dated 1999).
# Tests used:
# Assay type in all cases: biochemical, E. coli
# [1] = test system: T1, Nc1ncnc2c1ncn2[C@@H]1O[C@H](COP(=O)(O)OP(=O)(O)OP(=O)(O)O)[C@@H](O)[C@H]1O; assay: Colorimetric assay based on valine as substrate (valine-based assay of the invention); settings: other: colorimetric assay; pH 7.4; 37.0 °C
# T1 construct: endogenous in cells; enzyme partially purified in house
# Description: (§1) 2. Measurement of ITRS activity using a Colorimetric Assay based on using Valine as Substrate
# (§2) Incubations were set up in quadruplicate (as above) with a final volume of 200 μl as described below. Stock reagents used in the method were as follows:
# (§3) Prepared as described above. The specific activity of the enzyme used in the present example was approximately 145 nM of product formed/minute/mg, and was about 5%-10% active. The enzyme was diluted as appropriate. It will be appreciated that the enzyme amounts in the assay can be adjusted according to the purity of the enzyme used.
# (§4) The assay mixture for a final volume of 200 μl was composed of:
# (§5) The standard assay (in 200 μl) was carried out in quadruplicate in Eppendorf microcentrifuge tubes. The ingredients were pre-incubated for 2-3 minutes at 37° C. and the reaction started by addition of 20 μl of appropriately diluted enzyme extract (as described above).
# (§6) Thus the final reaction contained reagents in the following concentrations:
# (§7) 0.12 mg of mixed tRNA species from E. coli (as described above) HPLC purified from […] available from by Sigma (UK) Ltd 1 unit/μl of inorganic pyrophosphatase and
# (§8) an appropriate concentration of ITRS (for example […] of the enzyme as described above).
# (§9) The samples were incubated at 37° C. for 20-60 minutes. […] The optical absorbance is then measured at a wavelength of 630 nm using a spectrophotometer.
# CC(C)[C@H](N)C(=O)O = test system: T2, CC(C)[C@H](N)C(=O)O; assay: as above; settings: other: non-cognate amino acid substrate of ITRS; pH 7.4; 37.0 °C
# T2 construct: endogenous in cells; enzyme partially purified in house
# Description: as §1, §2, §3, §4, §5, §6, §7, §8, §9
# [2] = test system: T1, Nc1ncnc2c1ncn2[C@@H]1O[C@H](COP(=O)(O)OP(=O)(O)OP(=O)(O)O)[C@@H](O)[C@H]1O; assay: 3H-isoleucine-based radiolabelled (standard radiometric) assay; settings: other: 3H-Ile assay; pH 7.4; 37.0 °C
# Description: (§10) 2. Measurement of ITRS Activity using a ^3 H-Isoleucine-Based Radiolabelled Assay
# (§11) The activity of ITRS during fractionation was monitored using conditions based on the method described by Steinmetz and Weil (7), and as described below. Stock reagents used in the method are as follows:
# as §3, §4
# (§12) The standard assay (in 200 μl) was carried out in quadruplicate in Eppendorf microcentrifuge tubes. The ingredients were preincubated for 2-3 minutes at 37° C., and the reaction started by addition of approximately 20 μl of the appropriately diluted enzyme extract as described above.
# (§13) The final reaction contained reagents in the following concentrations:
# (§14) 0.1% bovine serum albumin […]
# (§15) 200 μl of the reaction mixture was pipetted onto 1.5 cm^2 cellulose 3MM filters. […] The dried filters were placed in 20 ml scintillation vials and the radioactivity counted in 15 ml Optiphase.
# (§16) The inhibition constants of two compounds were measured and the results compared with the values obtained using the standard ^3 H-isoleucine assay.
# CC[C@H](C)[C@H](N)C(=O)O = test system: T3, CC[C@H](C)[C@H](N)C(=O)O; assay: as above; settings: other: 3H-Ile assay; pH 7.4; 37.0 °C
# T3 construct: endogenous in cells; enzyme partially purified in house
# Description: as §10, §11, §3, §4, §12, §13, §14, §15, §16
substance,measurement,setting,value
E. coli ITRS (isoleucyl-tRNA synthetase) (Escherichia coli K-12),Km,[1],48 µM
same,Km,CC(C)[C@H](N)C(=O)O,500 µM
same,Km,[2],47 µM
same,Km,CC[C@H](C)[C@H](N)C(=O)O,4.3 µM
